In article PMC3082741 (Chemistry & biology, 2011):
Where “and” joins values, the source holds several entries; their conditions need not be identical. Equal values may be shown once.

Assays:
[1] = target: AcrA^S362C modified with biotin-maleimide, the immobilized AcrA (E. coli) (UniProt P0AE06); test: SPR
[2] = target: the molecule itself; test: SEC-MALS
[3] = target: the molecule itself; test: SDS-PAGE under reducing and non-reducing conditions
[4] = target: the molecule itself; test: SEC-MALS; remark: listed apart in the source

TolC, outer membrane channel, sequence (P02930 23-493): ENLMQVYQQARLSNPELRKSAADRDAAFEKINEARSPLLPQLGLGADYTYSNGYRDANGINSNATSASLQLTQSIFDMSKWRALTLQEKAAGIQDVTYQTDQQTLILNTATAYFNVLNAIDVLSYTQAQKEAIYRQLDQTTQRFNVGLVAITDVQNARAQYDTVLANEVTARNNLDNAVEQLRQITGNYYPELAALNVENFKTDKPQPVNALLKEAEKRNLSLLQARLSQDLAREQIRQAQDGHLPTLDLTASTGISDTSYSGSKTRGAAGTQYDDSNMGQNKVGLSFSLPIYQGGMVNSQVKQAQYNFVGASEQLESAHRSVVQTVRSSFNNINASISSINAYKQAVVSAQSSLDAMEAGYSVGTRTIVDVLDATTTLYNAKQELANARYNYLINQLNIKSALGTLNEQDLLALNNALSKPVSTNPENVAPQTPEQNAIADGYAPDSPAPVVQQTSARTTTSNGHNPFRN

Row | Molecule | KD1 (slow complexes, two populations of AcrA) [1] [µM] | KD2 (fast complexes, two populations of AcrA) [1] [µM] | also measured
1 | TolC, outer membrane channel (from UniProt P02930 23-493) (natural protein) | 0.01 | 0.11 | –
2 | TolC^YFRE, TolC mutant containing Y362F and R367E substitutions (open variant) (from UniProt P02930 23-493) (natural protein) | 0.02 | 6.7 | –
3 | AcrA^l, native lipid-modified AcrA (natural protein, N-terminal lipid modification at C25) CDDKQAQQGGQQMPAVGVVTVKTEPLQITTELPGRTSAYRIAEVRPQVSGIILKRNFKEGSDIEAGVSLYQIDPATYQATYDSAKGDLAKAQAAANIAQLTVNRYQKLLGTQYISKQEYDQALADAQQANAAVTAAKAAVETARINLAYTKVTSPISGRIGKSNVTEGALVQNGQATALATVQQLDPIYVDVTQSSNDFLRLKQELANGTLKQENGKAKVSLITSDGIKFPQDGTLEFSDVTVDQTTGSITLRAIFPNPDHTLLPGMFVRARLEEGLNPNAILVPQQGVTRTPRGDATVLVVGADDKVETRPIVASQAIGDKWLVTEGLKAGDRVVISGLQKVRPGVQVKAQEVTADNNQQAASGAQPEQSKS | – | – | stoichiometry N [2]: 2
4 | AcrA^G363C, lipid-modified AcrA with the G363C substitution in the MP domain (natural protein, N-terminal lipid modification at C25; disulfide bond between the two chains) CDDKQAQQGGQQMPAVGVVTVKTEPLQITTELPGRTSAYRIAEVRPQVSGIILKRNFKEGSDIEAGVSLYQIDPATYQATYDSAKGDLAKAQAAANIAQLTVNRYQKLLGTQYISKQEYDQALADAQQANAAVTAAKAAVETARINLAYTKVTSPISGRIGKSNVTEGALVQNGQATALATVQQLDPIYVDVTQSSNDFLRLKQELANGTLKQENGKAKVSLITSDGIKFPQDGTLEFSDVTVDQTTGSITLRAIFPNPDHTLLPGMFVRARLEEGLNPNAILVPQQGVTRTPRGDATVLVVGADDKVETRPIVASQAIGDKWLVTEGLKAGDRVVISCLQKVRPGVQVKAQEVTADNNQQAASGAQPEQSKS | – | – | stoichiometry N [3]: 2
5 | AcrB^S1043C biotinylated at C1043 (Cys1043^bio), the immobilized AcrB (natural protein, maleimide-PEG2-biotin on C1043) MPNFFIDRPIFAWVIAIIIMLAGGLAILKLPVAQYPTIAPPAVTISASYPGADAKTVQDTVTQVIEQNMNGIDNLMYMSSNSDSTGTVQITLTFESGTDADIAQVQVQNKLQLAMPLLPQEVQQQGVSVEKSSSSFLMVVGVINTDGTMTQEDISDYVAANMKDAISRTSGVGDVQLFGSQYAMRIWMNPNELNKFQLTPVDVITAIKAQNAQVAAGQLGGTPPVKGQQLNASIIAQTRLTSTEEFGKILLKVNQDGSRVLLRDVAKIELGGENYDIIAEFNGQPASGLGIKLATGANALDTAAAIRAELAKMEPFFPSGLKIVYPYDTTPFVKISIHEVVKTLVEAIILVFLVMYLFLQNFRATLIPTIAVPVVLLGTFAVLAAFGFSINTLTMFGMVLAIGLLVDDAIVVVENVERVMAEEGLPPKEATRKSMGQIQGALVGIAMVLSAVFVPMAFFGGSTGAIYRQFSITIVSAMALSVLVALILTPALSATMLKPIAKGDHGEGKKGFFGWFNRMFEKSTHHYTDSVGGILRSTGRYLVLYLIIVVGMAYLFVRLPSSFLPDEDQGVFMTMVQLPAGATQERTQKVLNEVTHYYLTKEKNNVESVFAVNGFGFAGRGQNTGIAFVSLKDWADRPGEENKVEAITMRATRAFSQIKDAMVFAFNLPAIVELGTATGFDFELIDQAGLGHEKLTQARNQLLAEAAKHPDMLTSVRPNGLEDTPQFKIDIDQEKAQALGVSINDINTTLGAAWGGSYVNDFIDRGRVKKVYVMSEAKYRMLPDDIGDWYVRAADGQMVPFSAFSSSRWEYGSPRLERYNGLPSMEILGQAAPGKSTGEAMELMEQLASKLPTGVGYDWTGMSYQERLSGNQAPSLYAISLIVVFLSLAALYESWSIPFSVMLVVPLGVIGALLAATFRGLTNDVYFQVGLLTTIGLSAKNAILIVEFAKDLMDKEGKGLIEATLDAVRMRLRPILMTSLAFILGVMPLVISTGAGSGAQNAVGTGVMGGMVTATVLAIFFVPVFFVVVRRRFSRKNEDIEHCHTVDHH | – | – | stoichiometry N [4]: 2 and 3
